Laboratory results published in patent US20240117018A1.

Legend:
Test in all cases: cell-based or functional assay
[1] = target: Env of HIV-1 pseudovirus 263-8 (HIV-1)
[2] = target: Env of HIV-1 pseudovirus BF1266.431a (HIV-1)
[3] = target: Env of HIV-1 pseudovirus CNE30 (HIV-1)
[4] = target: Env of HIV-1 pseudovirus Ce0682_E4 (HIV-1)
[5] = target: Env of HIV-1 pseudovirus Ce1172_H1 (HIV-1)
[6] = target: Env of HIV-1 pseudovirus Du156.12 (HIV-1)
[7] = target: Env of HIV-1 pseudovirus HIV-0013095-2.11 (HIV-1)
[8] = target: Env of HIV-1 pseudovirus HIV-16055-2.3 (HIV-1)
[9] = target: Env of HIV-1 pseudovirus MS208.A1 (HIV-1)
[10] = target: Env of HIV-1 pseudovirus T257-31 (HIV-1)
[11] = target: Env of HIV-1 pseudovirus THRO4156.18 (HIV-1)
[12] = target: Env of HIV-1 pseudovirus ZM109F.PB4 (HIV-1)
[13] = target: Env of HIV-1 pseudovirus ZM135M.PL10a (HIV-1)
[14] = target: Env of HIV-1 pseudovirus ZM197M.PB7 (HIV-1)
[15] = target: Env of HIV-1 pseudovirus ZM214M.PL15 (HIV-1)
[16] = target: Env of HIV-1 pseudovirus ZM233M.PB6 (HIV-1)
[17] = target: HIV-1 Env pseudovirus 1006_11_C3_1601 (HIV-1)
[18] = target: HIV-1 Env pseudovirus 1054_07_TC4_1499 (HIV-1)
[19] = target: HIV-1 Env pseudovirus 249M B10 (HIV-1)
[20] = target: HIV-1 Env pseudovirus 62357_14_D3_4589 (HIV-1)
[21] = target: HIV-1 Env pseudovirus 6240_08_TA5_4622 (HIV-1)
[22] = target: HIV-1 Env pseudovirus CNE30 (HIV-1)
[23] = target: HIV-1 Env pseudovirus Ce0682_E4 (HIV-1)
[24] = target: HIV-1 Env pseudovirus Ce2010_F5 (HIV-1)
[25] = target: HIV-1 Env pseudovirus HIV-001428-2.42 (HIV-1)
[26] = target: HIV-1 Env pseudovirus HIV-16055-2.3 (HIV-1)
[27] = target: HIV-1 Env pseudovirus Q769.d22 (HIV-1)
[28] = target: HIV-1 Env pseudovirus SC422661.8 (HIV-1)
[29] = target: HIV-1 Env pseudovirus WITO4160.33 (HIV-1)
[30] = target: HIV-1 Env pseudovirus ZM214M.PL15 (HIV-1)
[31] = target: HIV-1 Env pseudovirus ZM233M.PB6 (HIV-1)

10-1074 (antibody)
IC50 [1]: 0.666 µg/mL | IC80 [1]: 6.53 µg/mL | IC50 [2]: > 50 µg/mL | IC80 [2]: > 50 µg/mL | IC50 [3]: 0.363 µg/mL | IC80 [3]: 1.2 µg/mL | IC50 [4]: > 50 µg/mL | IC80 [4]: > 50 µg/mL | IC50 [5]: 0.047 µg/mL | IC80 [5]: 0.166 µg/mL | IC50 [6]: 0.015 µg/mL | IC80 [6]: 0.076 µg/mL | IC50 [7]: > 50 µg/mL | IC80 [7]: > 50 µg/mL | IC50 [8]: > 50 µg/mL | IC80 [8]: > 50 µg/mL | IC50 [9]: > 50 µg/mL | IC80 [9]: > 50 µg/mL | IC50 [10]: > 50 µg/mL | IC80 [10]: > 50 µg/mL | IC50 [11]: > 50 µg/mL | IC80 [11]: > 50 µg/mL | IC50 [12]: > 50 µg/mL | IC80 [12]: > 50 µg/mL | IC50 [13]: 0.069 µg/mL | IC80 [13]: 0.367 µg/mL | IC50 [14]: > 50 µg/mL | IC80 [14]: > 50 µg/mL | IC50 [15]: 0.174 µg/mL | IC80 [15]: 2.37 µg/mL | IC50 [16]: 0.06 µg/mL | IC80 [16]: 0.349 µg/mL

10E8 (antibody)
IC50 [1]: 0.196 µg/mL | IC80 [1]: 1.73 µg/mL | IC50 [2]: 2.69 µg/mL | IC80 [2]: > 10 µg/mL | IC50 [3]: 1.56 µg/mL | IC80 [3]: 9.84 µg/mL | IC50 [4]: 1.22 µg/mL | IC80 [4]: 7.71 µg/mL | IC50 [5]: 0.722 µg/mL | IC80 [5]: 4.82 µg/mL | IC50 [6]: 0.034 µg/mL | IC80 [6]: 0.144 µg/mL | IC50 [7]: 0.031 µg/mL | IC80 [7]: 0.213 µg/mL | IC50 [8]: 0.722 µg/mL | IC80 [8]: 6.5 µg/mL | IC50 [9]: 0.609 µg/mL | IC80 [9]: 3.72 µg/mL | IC50 [10]: 0.88 µg/mL | IC80 [10]: 5.78 µg/mL | IC50 [11]: 0.156 µg/mL | IC80 [11]: 0.884 µg/mL | IC50 [12]: 0.295 µg/mL | IC80 [12]: 1.89 µg/mL | IC50 [13]: 0.171 µg/mL | IC80 [13]: 1.19 µg/mL | IC50 [14]: 0.148 µg/mL | IC80 [14]: 0.802 µg/mL | IC50 [15]: 1.96 µg/mL | IC80 [15]: > 10 µg/mL | IC50 [16]: 0.442 µg/mL | IC80 [16]: 2.39 µg/mL

N49P7.2 (antibody)
IC50 [17]: 0.085 µg/mL | IC80 [17]: 0.237 µg/mL | MPI [17]: 100 | IC50 [18]: 2.04 µg/mL | IC80 [18]: 10.7 µg/mL | MPI [18]: 99 | IC50 [19]: 0.095 µg/mL | IC80 [19]: 0.349 µg/mL | MPI [19]: 100 | IC50 [20]: 0.03 µg/mL | IC80 [20]: 0.121 µg/mL | MPI [20]: 100 | IC50 [21]: 0.812 µg/mL | IC80 [21]: 2.87 µg/mL | MPI [21]: 100 | IC50 [22]: 0.362 µg/mL | IC80 [22]: 1.2 µg/mL | MPI [22]: 100 | IC50 [23]: 0.067 µg/mL | IC80 [23]: 0.233 µg/mL | MPI [23]: 100 | IC50 [24]: 0.398 µg/mL | IC80 [24]: 1.29 µg/mL | MPI [24]: 100 | IC50 [25]: 0.01 µg/mL | IC80 [25]: 0.036 µg/mL | MPI [25]: 100 | IC50 [26]: 0.204 µg/mL | IC80 [26]: 0.721 µg/mL | MPI [26]: 100 | IC50 [27]: 0.029 µg/mL | IC80 [27]: 0.14 µg/mL | MPI [27]: 100 | IC50 [28]: 0.119 µg/mL | IC80 [28]: 0.564 µg/mL | MPI [28]: 100 | IC50 [29]: 0.051 µg/mL | IC80 [29]: 0.215 µg/mL | MPI [29]: 100 | IC50 [30]: 0.559 µg/mL | IC80 [30]: 4.53 µg/mL | MPI [30]: 100 | IC50 [31]: 0.475 µg/mL | IC80 [31]: 2.14 µg/mL | MPI [31]: 99
